Literature values, collected in article PMC3218054, “Characterisation of the Interaction of the C-Terminus of the Dopamine D2 Receptor with Neuronal Calcium Sensor-1” (PLoS ONE, 2011).
“Also recorded” adds a separate entry of the source.

System: NCS-1
Conditions: D3 receptor
From the text: Ultimately, it would be important to understand how NCS-1 interacts with the intact receptor. We, therefore, constructed a model of the NCS-1-D3 receptor complex using the AIR derived from the D2SR peptide-NCS-1 chemical mapping data, and taking into consideration that many of the hydrophobic residues at the C-terminus of D3 receptor are involved in intramolecular interactions with helix I of the receptor [45]. HADDOCK docking produ ... || Biophysical analysis of NCS-1 was consistent with the protein being monomeric in the presence or absence of Ca ^2+.

B1: D3 receptor: dopamine D3 receptor (PDB Accession 3PBL), docked onto NCS-1 (protein, UniProt P35462 1-400, looked up)
D(3) dopamine receptor: MASLSQLSGHLNYTCGAENSTGASQARPHAYYALSYCALILAIVFGNGLVCMAVLKERALQTTTNYLVVSLAVADLLVATLVMPWVVYLEVTGGVWNFSRICCDVFVTLDVMMCTASILNLCAISIDRYTAVVMPVHYQHGTGQSSCRRVALMITAVWVLAFAVSCPLLFGFNTTGDPTVCSISNPDFVIYSSVVSFYLPFGVTVLVYARIYVVLKQRRRKRILTRQNSQCNSVRPGFPQQTLSPDPAHLELKRYYSICQDTALGGPGFQERGGELKREEKTRNSLSPTIAPKLSLEVRKLSNGRLSTSLKLGPLQPRGVPLREKKATQMVAIVLGAFIVCWLPFFLTHVLNTHCQTCHVSPELYSATTWLGYVNSALNPVIYTTFNIEFRKAFLKILSC
In the case of B1, the “ability to bind NCS-1” value is listed as “shown to bind to the dopamine D3 receptor and to regulate its internalisation; also recorded: can also bind to NCS-1”.
